Measured values taken from article PMC8800102.
Like-named read-outs stand apart in the source and are kept apart here.

Experiments:
Test in all cases: NMR titration
[1] = target: T1, Sds3 capped Tudor domain (CTD) (mouse, UniProt Q8BR65 250-326)
T1 sequence: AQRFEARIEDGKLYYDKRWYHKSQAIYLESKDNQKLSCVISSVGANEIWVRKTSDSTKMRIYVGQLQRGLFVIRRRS

[2] = target: T1, Sds3 capped Tudor domain (CTD); remark: listed apart in the source
[3] = target: T1, Sds3 capped Tudor domain (CTD); remark: listed apart in the source

Binder: AACUGUCG (ssRNA) [random RNA 8mer]
- binding result [1]: no binding

Binder: TTGGGG (structured_DNA) [T2G4]
- binding result [2]: binds

Binder: TGTGGTT (ssDNA) [SELEX 7mer motif]
- binding result [3]: no binding
